Measured values: the Immune Epitope Database (IEDB)
pIC50, pKd: −log10 of the molar value.

Key:
HLA-A*02:01 [1] = experiment: IEDB peptide-MHC binding, purified MHC/competitive/radioactivity; filed as Kd, often an IC50 or EC50 that approximates it; ≥ and ≤ were set here for values at or beyond the usual limits of such assays
HLA-A*26:01 [2] = experiment: IEDB peptide-MHC binding, purified MHC/competitive/fluorescence; filed as Kd, often an IC50 or EC50 that approximates it; ≥ and ≤ were set here for values at or beyond the usual limits of such assays
HLA-B*15:01 [3] = experiment: as above
HLA-A*68:02 = experiment: IEDB peptide-MHC binding, purified MHC/competitive/radioactivity; filed as Kd, often an IC50 or EC50 that approximates it; ≥ and ≤ were set here for values at or beyond the usual limits of such assays
HLA-B*08:01 = experiment: as above
HLA-A*02:02 = experiment: as above
HLA-A*02:06 = experiment: as above
HLA-A*02:03 = experiment: as above; conditions: source organism: Trypanosoma cruzi
HLA-A*26:01 [4] = experiment: as above
HLA-A*01:01 = experiment: as above; conditions: source organism: Dengue virus 3 Martinique/1243/1999
HLA-B*51:01 [5] = experiment: IEDB peptide-MHC binding, purified MHC/competitive/fluorescence; filed as Kd, often an IC50 or EC50 that approximates it; ≥ and ≤ were set here for values at or beyond the usual limits of such assays
HLA-B*51:01 [6] = experiment: IEDB peptide-MHC binding, purified MHC/competitive/radioactivity; filed as Kd, often an IC50 or EC50 that approximates it; ≥ and ≤ were set here for values at or beyond the usual limits of such assays; conditions: source organism: Dengue virus 3 Martinique/1243/1999
HLA-A*03:01 = experiment: IEDB peptide-MHC binding, purified MHC/competitive/fluorescence; filed as Kd, often an IC50 or EC50 that approximates it; ≥ and ≤ were set here for values at or beyond the usual limits of such assays
HLA-B*35:01 = experiment: IEDB peptide-MHC binding, purified MHC/competitive/radioactivity; filed as Kd, often an IC50 or EC50 that approximates it; ≥ and ≤ were set here for values at or beyond the usual limits of such assays; conditions: source organism: Dengue virus 4 Philippines/H241/1956
HLA-B*07:02 [7] = experiment: as above; conditions: source organism: Dengue virus 4 Philippines/H241/1956
HLA-A*11:01 = experiment: IEDB peptide-MHC binding, purified MHC/competitive/fluorescence; ≥ and ≤ were set here for values at or beyond the usual limits of such assays; conditions: source organism: Vaccinia virus WR
HLA-B*40:01 = experiment: IEDB peptide-MHC binding, purified MHC/direct/fluorescence; filed as Kd, often an IC50 or EC50 that approximates it; ≥ and ≤ were set here for values at or beyond the usual limits of such assays; conditions: source organism: Mycobacterium avium subsp. paratuberculosis
HLA-B*07:02 [8] = experiment: as above; conditions: source organism: Homo sapiens
HLA-B*15:01 [9] = experiment: as above; conditions: source organism: Vaccinia virus Copenhagen
HLA-A*02:01 [10] = experiment: as above; conditions: source organism: Vaccinia virus Copenhagen
[11] = source organism: Escherichia coli str. K-12 substr. MG1655
[12] = source organism: Dengue virus 2 Jamaica/1409/1983
[13] = source organism: Vaccinia virus WR
[14] = source organism: Trypanosoma cruzi
[15] = source organism: Dengue virus 3 Martinique/1243/1999
[16] = source organism: Dengue virus 1 Brazil/97-11/1997
[17] = source organism: Escherichia coli F11
[18] = source organism: Dengue virus 4 Philippines/H241/1956
[19] = source organism: Pan troglodytes

AAGLQDCTMLV showed a pKd (HLA-A*02:01 [1]; source organism: Hepatitis C virus (isolate 1)) of at most 4.30.

With ALKANNKVY the pKd (HLA-A*26:01 [2]; [11]) was at most 4.70 and the pKd (HLA-B*15:01 [3]; [11]) was 6.15.

ANNKVYEAY showed a pKd (HLA-B*15:01 [3]; [11]) of 6.30.

DLTDYLMKI was tested, and the pKd (HLA-A*68:02; source organism: Homo sapiens) was 5.43.

Work on EAAGIFMTA yielded a pKd (HLA-A*68:02; [12]) of 9.43.

For EARVEFGPL, the pKd (HLA-B*08:01; [13]) was 6.75.

With EIAETQHGTI the pKd (HLA-A*68:02; [12]) was 7.00.

Work on ELLRPTTVV yielded a pKd (HLA-A*02:02; [14]) of 5.22, a pKd (HLA-A*68:02; [14]) of 7.04 and a pKd (HLA-A*02:06; [14]) of 5.73. For the same sequence, the pKd (HLA-A*02:03) was 5.92 and the pKd (HLA-A*02:01 [1]; [14]) was 5.17.

Work on ELQAALARV yielded a pKd (HLA-A*02:02; source organism: Homo sapiens) of 6.93, a pKd (HLA-A*68:02; source organism: Homo sapiens) of 8.69 and a pKd (HLA-A*02:06; source organism: Homo sapiens) of 7.39. The pKd (HLA-A*02:01 [1]; source organism: Homo sapiens) was 6.25.

ESPSKLASAI was tested, and the pKd (HLA-A*68:02; [12]) was 7.13 and the pKd (HLA-A*26:01 [4]; [12]) was at most 4.18.

ETMETLLLL showed a pKd (HLA-A*01:01) of 4.94, a pKd (HLA-A*68:02; [15]) of 7.76 and a pKd (HLA-A*26:01 [4]; [15]) of 7.02.

EVSETQHGTI gave a pKd (HLA-A*68:02; [15]) of 6.71.

With FAIPIAEQI the pKd (HLA-B*51:01 [5]; source organism: Listeria monocytogenes serotype 4b str. CLIP 80459) was at most 4.70.

For FANYKFTLV, the pKd (HLA-A*02:02; [14]) was 7.13, the pKd (HLA-A*68:02; [14]) was 7.75 and the pKd (HLA-A*02:06; [14]) was 9.33. It also gave a pKd (HLA-A*02:03) of 9.22.

Work on FANYNFTLL yielded a pKd (HLA-A*02:02; [14]) of 10.08, a pKd (HLA-A*68:02; [14]) of 9.82 and a pKd (HLA-A*02:06; [14]) of 9.91. For the same sequence, the pKd (HLA-A*02:03) was 8.47.

FSRENSYSGV showed a pKd (HLA-B*51:01 [6]) of at most 4.35.

For FTVIALFLA, the pKd (HLA-A*68:02; [16]) was 6.87 and the pKd (HLA-A*02:06; [16]) was 8.50.

GIAACLMTY gave a pKd (HLA-B*15:01 [3]; [17]) of 5.52 and a pKd (HLA-A*03:01; [17]) of at most 4.70.

For HALNELPESL, the pKd (HLA-B*08:01; [18]) was 5.43.

IKLTVVVGDI gave a pKd (HLA-B*08:01; [15]) of 5.98.

IKRRLRTLIL was tested, and the pKd (HLA-B*08:01; [15]) was 6.73.

Sequence ILIEGIFFV has a pKd (HLA-A*02:01 [1]; source organism: Human alphaherpesvirus 3) of 10.52.

IPKAYAGPF showed a pKd (HLA-B*35:01) of 6.54 and a pKd (HLA-B*07:02 [7]) of 8.14.

With IRANNNRLP the pIC50 (HLA-A*11:01) was at most 3.68.

Work on KDAWLSLPK yielded a pKd (HLA-A*03:01; source organism: Vibrio cholerae) of at most 4.70.

With KEHKGVGFL the pKd (HLA-B*40:01) was 7.52.

KFFPSSSYRR was tested, and the pKd (HLA-A*03:01; source organism: Influenza A virus (A/Fort Monmouth/1/1947-mouse adapted(H1N1))) was 5.36.

KVRDRNFQL showed a pKd (HLA-A*26:01 [2]; [19]) of at most 4.70, a pKd (HLA-B*15:01 [3]; [19]) of at most 4.70 and a pKd (HLA-B*51:01 [5]; [19]) of at most 4.70. For the same sequence, the pKd (HLA-B*07:02 [8]) was 8.06.

In the case of LFMSHVKSV, the pKd (HLA-B*15:01 [9]) was 4.82, the pKd (HLA-A*02:01 [10]) was 5.76 and the pKd (HLA-B*08:01; [13]) was 8.51.

For LLGLWGFATA, the pKd (HLA-A*02:02; [14]) was 7.30, the pKd (HLA-A*68:02; [14]) was at most 4.30 and the pKd (HLA-A*02:06; [14]) was 7.21. It also gave a pKd (HLA-A*02:03) of 8.72 and a pKd (HLA-A*02:01 [1]; [14]) of 7.19.

Sequence LLILCVTQVL has a pKd (HLA-B*08:01; [12]) of 6.01.

Work on LLLMRTTWA yielded a pKd (HLA-B*08:01; [18]) of 7.73.

In the case of LMRRGDLPV, the pKd (HLA-B*08:01; [12]) was 7.75.

LMWKQITPEL showed a pKd (HLA-B*08:01; [12]) of 5.91.
